System: Penta-His antibody
Assay: Competition study with HisTagged proteins (HisTag FPIA)
Assay type: binding
Details: 1-2 nM fluor-AHHHHHHG, 10 nM Penta-His antibody, approx. 60 min at room temperature; read-out: approximate IC50 (concentration of competitor required to decrease FP signal by 50%)
Experimental: Purified N-terminal HisTagged proteins were serially diluted into PBS +0.01% NP-40 in a multiwell plates. 1-2 nM fluorescein labeled peptide (fluor-AHHHHHHG) and 10 nM of Penta-His antibody were then added to each reaction to a final volume of 50-100 ul. After approximately 60 min incubation at room temperature to insure equilibrium binding, the polarization was measured on a Tecan Polarian multiwell instrument.
Protein Kinase A (PKA) is a serine/threonine kinase, ZAP-70 is a tyrosine kinase, and the Estrogen Receptor Ligand Binding Domain (ER-LBD) is comprised of the C-terminal 300 amino acids of ERα; all three proteins were highly purified and active.

IC50: ~36 nM
B1: ZAP-70: recombinant human tyrosine kinase with N-terminal six-histidine fusion (protein, UniProt P43403 1-619, looked up)
Tyrosine-protein kinase ZAP-70: MPDPAAHLPFFYGSISRAEAEEHLKLAGMADGLFLLRQCLRSLGGYVLSLVHDVRFHHFPIERQLNGTYAIAGGKAHCGPAELCEFYSRDPDGLPCNLRKPCNRPSGLEPQPGVFDCLRDAMVRDYVRQTWKLEGEALEQAIISQAPQVEKLIATTAHERMPWYHSSLTREEAERKLYSGAQTDGKFLLRPRKEQGTYALSLIYGKTVYHYLISQDKAGKYCIPEGTKFDTLWQLVEYLKLKADGLIYCLKEACPNSSASNASGAAAPTLPAHPSTLTHPQRRIDTLNSDGYTPEPARITSPDKPRPMPMDTSVYESPYSDPEELKDKKLFLKRDNLLIADIELGCGNFGSVRQGVYRMRKKQIDVAIKVLKQGTEKADTEEMMREAQIMHQLDNPYIVRLIGVCQAEALMLVMEMAGGGPLHKFLVGKREEIPVSNVAELLHQVSMGMKYLEEKNFVHRDLAARNVLLVNRHYAKISDFGLSKALGADDSYYTARSAGKWPLKWYAPECINFRKFSSRSDVWSYGVTMWEALSYGQKPYKKMKGPEVMAFIEQGKRMECPPECPPELYALMSDCWIYKWEDRPDFLTVEQRMRACYYSLASKVEGPPGSTQKAEAACA
modifications: N-terminal polyhistidine tag

Source: patent US20030044789A1, “Identification and quantification of a protein carrying an N-terminal polyhistidine affinity tag” (priority 2000, published 2003)
